Source: article PMC8901441, “The interplay between BAX and BAK tunes apoptotic pore growth to control mitochondrial-DNA-mediated inflammation” (Molecular Cell, 2022)

Key:
[1] = biological target: BAK-488 (full-length mouse BAK L192K, F193S, Y196D, C154S, labelled with Atto 488) (mouse) (UniProt O08734); assay: single-molecule TIRF brightness (stoichiometry) analysis; 1, 5 or 10 nM labelled protein incubated 1 h with EPC:CL 8:2 LUVs (150 mM NaCl, 10 mM HEPES/KOH, pH 7.4), activated by heat (43°C), or 1 nM BAK-488 by 2 nM cBid; proteoliposomes diluted with LUVs and fused into supported lipid bilayers on glass; corrected for partial labelling
[2] = biological target: the molecule itself; assay: as above

| stoichiometry N [1] | Molecule | stoichiometry N [2] |
| --- | --- | --- |
| 2 | BAK-488 (full-length mouse BAK L192K, F193S, Y196D, C154S, labelled with Atto 488) (from UniProt O08734 1-209) (natural protein) |  |
|  | BAX-488 (single-cysteine, full-length human BAX S4C, C62S, C126S, labelled with Atto 488) (natural protein, UniProt Q07812 1-192, looked up, Atto 488 covalently attached to the single cysteine, BAX, human, single-cysteine mutant (S4C, C62S, C126S); Plasmid pTYB1_hBAX-S4C,C62S, C126S from a previous study (doi 10.1038/ncomms9042); Labelling efficiency 84%; also called hBAX-S4C,C62S, C126S) MDGCGEQPRGGGPTSSEQIMKTGALLLQGFIQDRAGRMGGEAPELALDPVPQDASTKKLSESLKRIGDELDSNMELQRMIAAVDTDSPREVFFRVAADMFSDGNFNWGRVVALFYFASKLVLKALSTKVPELIRTIMGWTLDFLRERLLGWIQDQGGWDGLLSYFGTPTWQTVTIFVAGVLTASLTIWKKMG | ≤ 10 |
